From the supplement of paper PMC7125110
± gives the standard error. For part of these data: Variants at the floor of the assay were thinned out.

B1: glmS ribozyme (parent)
chain: AUAAAAGCGCCAGAACUACAGAAAUGUAGUUGACGAGGAGGAGGUUUAUCGAAUUUUCGGCGGAUGCCUCCAAA

How the values were obtained:
Conditions in all cases: with glucosamine-6-phosphate
glucosamine-6-phosphate [1] = variants of: B1; experiment: KM; higher = weaker cofactor use; RNA array
In short: (§1)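 In situ transcription by E. coli RNA polymerase produced barcoded ribozyme variants on sequenced MiSeq chips, and a hybridised Cy3 probe tracked them at 37 °C. Glucosamine-6-phosphate was flowed in at 40 μM to 10 mM in HEPES/KCl/Mg(OAc)2 buffer. kcat and KM were taken from weighted Michaelis–Menten fits of kobs values from exponential decay fits.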

glucosamine-6-phosphate [2] = variants of: B1; experiment: self-cleavage kobs at 40 uM GlcN6P; higher = faster cleavage; RNA array
In short: as §1

glucosamine-6-phosphate [3] = variants of: B1; experiment: self-cleavage kobs at 160 uM GlcN6P; higher = faster cleavage; RNA array
In short: as §1

glucosamine-6-phosphate [4] = variants of: B1; experiment: self-cleavage kobs at 640 uM GlcN6P; higher = faster cleavage; RNA array
In short: as §1

glucosamine-6-phosphate [5] = variants of: B1; experiment: self-cleavage kobs at 2500 uM GlcN6P; higher = faster cleavage; RNA array
In short: as §1

glucosamine-6-phosphate [6] = variants of: B1; experiment: self-cleavage kobs at 10000 uM GlcN6P; higher = faster cleavage; RNA array
In short: as §1

Variant	KM (glucosamine-6-phosphate [1])	self-cleavage kobs at 40 uM GlcN6P (glucosamine-6-phosphate [2])	self-cleavage kobs at 160 uM GlcN6P (glucosamine-6-phosphate [3])	self-cleavage kobs at 640 uM GlcN6P (glucosamine-6-phosphate [4])	self-cleavage kobs at 2500 uM GlcN6P (glucosamine-6-phosphate [5])	self-cleavage kobs at 10000 uM GlcN6P (glucosamine-6-phosphate [6])
AUAAAAGCGCCAGAACUACAGAAAUGUAGUUGACUAGGAGGAGGUUUAUCUAAUUUUCGGCGGAUGCCUCCAAA	31.5 ± 11 µM	–	–	–	–	–
AUAAAAACGCCAGAAAUACAGAAAUGUAGUUGACGAGGAGGAGGUUUAUCGAAUUUUCGGCGGAUGCCUCCAAA	275 ± 120 µM	–	–	–	–	–
AUAAAAGCGCCAGAGCUACAGAAAUGUAGUUGACGAGGAGGAGGUUUAUCGAAAUUUCGGCGGAUGCCUCCAAA	508 ± 200 µM	0.000663 ± 0.00011 s⁻¹	0.00251 ± 0.00049 s⁻¹	0.006 ± 0.0015 s⁻¹	0.00683 ± 0.0018 s⁻¹	0.0333 ± 0.014 s⁻¹
AUAAAAGCGCCAGAACUACAGAAAUGUAGUUGACGAGGAGGAGGUUUAUCGAAAUUUCGGAGGAUGCCUCCAAA	864 ± 400 µM	–	–	–	–	–
AUAAAAGCGCCAGAACUACAGAAAUGUAGUUGACGAGGAGGAGGUUUAUCGAAUUUUCUGCUGAUGCCUCUAAA	–	< 1e-05 s⁻¹	–	–	–	–
AUAAAAGCGCCAGAACUACAGAAAUGUAGUUGACGACGAUGAGGUUUAUCGAAUUUUCGGCGGAUGCCUCCAAA	5820 ± 2300 µM	–	–	–	–	–
AUAAAAGCGCCAGAACUACAGAAAUGUACUUGACGAGGAGCAGAUUUAUCGAAUUUUCGACGGAUGCCUCCAAA	–	< 1e-05 s⁻¹	–	–	–	< 1e-05 s⁻¹
AUAAAAGCGCCAGAACUACAGAAAUGUAGUUGACGAGGUGGAGGUUUAUCGCAUUUUCGGCGGAUGCCUCCAAA	2300 ± 420 µM	–	–	–	–	–
AUAAAAGCGCCUGAACUACAGAAAUGUAGUUGACGAGGAGGAGGUUUAUCGAAUUUUCGGCGGAUACCUCCAAA	278 ± 130 µM	0.0012 ± 0.00016 s⁻¹	0.00266 ± 0.0007 s⁻¹	0.00776 ± 0.002 s⁻¹	0.00745 ± 0.0017 s⁻¹	0.0359 ± 0.012 s⁻¹
AUAAAACCGCCAGAACUACAGAAAUGUAGUUGACGAGGAGGAGGUUUAUCGAAUUUUCAGCGGAUGCCUCCAAA	–	< 1e-05 s⁻¹	< 1e-05 s⁻¹	< 1e-05 s⁻¹	–	< 1e-05 s⁻¹
AUAAAAGCGCCAGAACUACAGAAAUGUAGUUGACGAGGUGGAAGUUUAUUGAAUUUUCGGCGGAUGCCUCCAAA	–	< 1e-05 s⁻¹	–	–	–	–
AUAAAAGCGCCAGGACUACAGAAAUGUAGUCGACGAGGAGGAGGUUUAUCGAAUUUUCGGCGGAUGCCUCCAAA	891 ± 450 µM	0.0012 ± 0.00019 s⁻¹	0.00337 ± 0.00062 s⁻¹	0.00963 ± 0.0011 s⁻¹	0.0154 ± 0.0043 s⁻¹	0.05 ± 0.013 s⁻¹
AUAAAAGCGCCAGAACUACAGAAAUGUAGUUGACGAGGAAGAGGUUUAUCGAAUUUUCAGCGGAUGCCUCCAAA	1080 ± 65 µM	–	–	–	–	–
AUAAACGCGCCGGAACUACAGAAAUGUAGUUGACGAGGAGGAGGUUUAUCGAAUUUUCGGCGGAUGCCGCCAAA	–	< 1e-05 s⁻¹	< 1e-05 s⁻¹	–	–	< 1e-05 s⁻¹
AUAAAAGCGCCAGAACUACAGAAAUGUAGUUGACGAGUAGGAGGUUUAUCGAAUUUUCGGCGGAUGCCUCAAAA	35.8 ± 15 µM	–	–	–	–	–
